Experimental data: patent US10800813
Numbered stars: 1 amine (or outer) side, 2 acyl side, 3 side chain; on linkers, the order of the positions; unused ones are H or OH. Bridge positions count the residues as written; N and C are the ends. Ends that are not written are not given here. TBMB = c1c(C[*:1])cc(C[*:3])cc1C[*:2]

Biological target: Human factor XIa (human), P03951
Test: enzyme inhibition assay
Conditions: remark: other sources report otherwise

Ki: 75 µM
Binder: ACTYPYKCLHQNLCA (linker 2-8-14 via TBMB) [2A10]
